Measurements as given in publication PMC4794909, “The transcription factor scleraxis is a critical regulator of cardiac fibroblast phenotype”.

T1: scleraxis (Scx) (UniProt Q6P6L3 1-207)
T1 sequence: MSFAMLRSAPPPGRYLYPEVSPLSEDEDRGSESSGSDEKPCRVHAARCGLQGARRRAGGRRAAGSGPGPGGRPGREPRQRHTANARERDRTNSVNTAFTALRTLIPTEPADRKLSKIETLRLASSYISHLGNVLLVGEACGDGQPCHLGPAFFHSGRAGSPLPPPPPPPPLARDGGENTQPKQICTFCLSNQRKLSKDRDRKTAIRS

B1: E box 1 (E1), αSMA promoter (dsDNA)
DNA 1: GTCTGGGCATTTGAGCAGTTGTTCTGAGGGCTCAGG
DNA 2: CCTGAGCCCTCAGAACAACTGCTCAAATGCCCAGAC
B2: E box 2 (E2), αSMA promoter (dsDNA)
DNA 1: GTTTATCCCCATAAGCAGCTGAACTGCCTCCTGTTT
DNA 2: AAACAGGAGGCAGTTCAGCTGCTTATGGGGATAAAC
B3: E box 1 mutant (mE1) (dsDNA)
DNA 1: GTCTGGGCATTTGAGCCGATGTTCTGAGGGCTCAGG
DNA 2: CCTGAGCCCTCAGAACATCGGCTCAAATGCCCAGAC
B4: E box 2 mutant (mE2) (dsDNA)
DNA 1: GTTTATCCCCATAAGCTGGTGAACTGCCTCCTGTTT
DNA 2: AAACAGGAGGCAGTTCACCAGCTTATGGGGATAAAC

target: T1, scleraxis (Scx); experiment: EMSA; LightShift Chemiluminescent EMSA Kit (Pierce) per manufacturer, as in ref. 18; 500x cold competition; buffer, salt, pH and temperature not given; conditions: chain copies: 2; label: biotin; blunt

| Binder | binding result |
| --- | --- |
| B1 | binds |
| B2 | binds |
| B3 | no binding |
| B4 | no binding |
